According to the supplement of paper PMC10567573:

B1: KRT13 (parent)
chain: TSSASVTTTSNASGRRTSDVRRP
B2: ZNF449 (parent)
chain: HTGERPYECTVCKKRFTRRSHLIG

Variants of: B1
Test: protein stability index of a GFP-peptide fusion (GPS, HEK-293T) (PSI 1-6); higher = more stable
Settings: c terminus: native
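Further: lentivirally expressed fusions sorted by FACS into six bins by GFP to DsRed ratio, PSI derived from sequencing read proportions per bin multiplied by bin number.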

Row | Variant | protein stability index
1 | S10P | 2.11
2 | S10H | 2.48
3 | S10E | 2.03
4 | S10F | 2.96
5 | S10V | 2.99
6 | S10Y | 1.98
7 | S10D | 2.05
8 | S10C | 4.58
9 | S10Q | 2.12
10 | S10T | 1.6
11 | T9C | 1.54
12 | T9K | 2.19
13 | T9N | 1.81
14 | T9V | 2.72
15 | T9H | 3.88
16 | T9D | 2.05
17 | T9F | 2.13
18 | T9E | 2.58
19 | T9P | 1.97
20 | T9G | 1.73
21 | D19N | 2.26
22 | D19V | 3.02
23 | D19I | 2.44
24 | D19H | 1.73

Row | Variant | protein stability index
25 | D19T | 2.69
26 | D19P | 2.86
27 | D19R | 2.08
28 | D19C | 2.52
29 | D19Y | 1.92
30 | D19K | 2.25
31 | D19F | 2.83
32 | D19S | 2.07
33 | D19L | 2.61
34 | D19M | 3.59
35 | R15K | 1.49
36 | R15Y | 2.03
37 | R15A | 2.17
38 | R15E | 2.43
39 | R15N | 2.6
40 | R15L | 2.37
41 | R15P | 1.73
42 | R15T | 1.94
43 | R15F | 1.88
44 | R15Q | 2.53
45 | R15C | 2.17
46 | R15D | 2.25
47 | R15I | 2.36
48 | R15H | 2.61

Row | Variant | protein stability index
49 | R16I | 2.33
50 | R16Y | 3.97
51 | R16C | 1.27
52 | R16Q | 1.52
53 | R16N | 2.05
54 | R16W | 2.87
55 | R16D | 1.66
56 | R16E | 2.08
57 | R16S | 2.11
58 | R16F | 2.27
59 | R16H | 2.37
60 | R16K | 1.59
61 | R16M | 2.14
62 | R16T | 3.07
63 | R16G | 1.04
64 | R16A | 1.65
65 | R16P | 2.52
66 | T17N | 2.15
67 | T17H | 2.66
68 | T17I | 3.61
69 | T17Y | 2.3
70 | T17E | 1.63
71 | T17D | 2.62
72 | T17L | 1.45

Row | Variant | protein stability index
73 | T17M | 2.44
74 | T17C | 2.94
75 | T17S | 2.16
76 | R22E | 1.75
77 | R22V | 2.08
78 | R22M | 3.05
79 | R22K | 2.13
80 | R22H | 3.45
81 | R22L | 1.38
82 | R22Y | 1.75
83 | R22Q | 2.71
84 | R22A | 2.49
85 | R22I | 2.77
86 | R22N | 3.07
87 | R22W | 2.04
88 | R22T | 1.84
89 | R22S | 1.88
90 | R22P | 2.62
91 | R22D | 1.93
92 | P23L | 4.45
93 | P23G | 3.15
94 | P23T | 4.53
95 | P23H | 1.77
96 | P23M | 4.45

Row | Variant | protein stability index
97 | P23W | 4.6
98 | P23Q | 3.43
99 | P23R | 3.9
100 | P23E | 1.59
101 | P23F | 4.92
102 | P23Y | 4.86
103 | P23S | 2.36
104 | P23C | 2.42
105 | P23I | 4.47
106 | P23K | 4.84
107 | P23N | 2.27
108 | G14D | 1.88
109 | G14S | 3.57
110 | G14M | 3.29
111 | G14Y | 2.32
112 | G14V | 2.64
113 | G14P | 1.88
114 | G14Q | 2.23
115 | G14L | 3.71
116 | G14A | 3.4
117 | G14N | 2.03
118 | G14T | 2.3
119 | G14E | 2.97
120 | G14I | 2.46

Row | Variant | protein stability index
121 | G14C | 1.75
122 | G14R | 2.21
123 | T7Y | 4.47
124 | R21Q | 5.75
125 | R21P | 5.33
126 | R21T | 5.55
127 | R21F | 5.07
128 | R21M | 5.27
129 | R21A | 5.32
130 | R21E | 5.51
131 | R21D | 5.12
132 | R21C | 4.97
133 | R21Y | 5.15
134 | R21L | 4.89
135 | R21S | 5.41
136 | R21K | 5.25
137 | R21V | 4.97
138 | R21N | 5.24
139 | R21W | 5.35
140 | R21H | 5.55
141 | R21I | 4.91
142 | N11V | 1.98
143 | N11F | 2.92
144 | N11H | 1.8

Row | Variant | protein stability index
145 | N11T | 2.74
146 | N11P | 1.12
147 | N11D | 1.71
148 | N11L | 2.98
149 | N11G | 2.7
150 | N11K | 1.86
151 | N11R | 2.36
152 | N11Y | 3.34
153 | N11I | 1.08
154 | N11A | 3.09
155 | N11E | 3.41
156 | S18L | 2.03
157 | S18P | 2.02
158 | S18T | 2.85
159 | S18G | 1.23
160 | S18F | 1.56
161 | S18A | 4.56
162 | S18M | 1.77
163 | S18Q | 2.82
164 | S18E | 2.45
165 | S18V | 3.51
166 | S18K | 1.3
167 | S18D | 2.19
168 | V20Y | 2.38

Row | Variant | protein stability index
169 | V20H | 2.51
170 | V20Q | 2.06
171 | V20D | 1.76
172 | V20G | 2.03
173 | V20N | 2.13
174 | V20P | 2.31
175 | V20E | 2.52
176 | V20A | 1.63
177 | V20T | 4.51
178 | V20C | 2.16
179 | V20K | 2.73
180 | V20I | 4.34
181 | S13G | 1.7
182 | S13E | 1.7
183 | S13A | 2.97
184 | S13Q | 1.37
185 | S13V | 3.04
186 | S13K | 1.94
187 | S13R | 1.4
188 | S13T | 5.7
189 | S13L | 2.47
190 | S13P | 2.41
191 | S13D | 1.45
192 | S13W | 1.04

Row | Variant | protein stability index
193 | T8Q | 3.25
194 | T8Y | 3.44
195 | T8P | 1.64
196 | T8K | 3.7
197 | T8A | 3.85
198 | T8F | 2.35
199 | T8E | 3.31
200 | T8N | 2.98
201 | T8G | 2.26
202 | T8D | 2.08
203 | A12H | 3.71
204 | A12C | 3.03
205 | A12I | 2.81
206 | A12L | 2.53
207 | A12F | 3.48
208 | A12S | 2.19
209 | A12P | 2.25
210 | A12D | 3.12

Variants of: B2
Test: as above
Settings: c terminus: a fixed tail appended

Row | Variant | protein stability index
211 | I23K | 4.19
212 | I23A | 2.64
213 | I23M | 1.7
214 | I23T | 2.41
215 | I23D | 2.8
216 | E4D | 1.82
217 | E4M | 2.24
218 | E4G | 1.55
219 | E4C | 2.26
220 | E4S | 2.53
221 | T17M | 1.22
222 | T17W | 2.03
223 | T17G | 1.82
224 | T17L | 2.19
225 | T17E | 2.63
226 | T17R | 2.95
227 | C12Y | 3.2
228 | C12M | 4.64
229 | H1I | 1.74
230 | H1G | 1.83
231 | H1D | 2.19
232 | H1Y | 2.98
233 | H1L | 1.79
234 | H1V | 2.39
235 | G24E | 1.92

Row | Variant | protein stability index
236 | G24R | 2.39
237 | G24S | 2.61
238 | G24H | 1.89
239 | G24C | 2.48
240 | T10F | 2.88
241 | T10L | 2.37
242 | T10Y | 3.04
243 | T10I | 3.07
244 | V11T | 3.47
245 | V11H | 2.99
246 | V11F | 1.47
247 | V11N | 2.8
248 | R19A | 1.71
249 | R19Q | 2.34
250 | R19L | 1.53
251 | R19I | 1.39
252 | R19P | 1.94
253 | R19K | 2.54
254 | R19W | 2.52
255 | R19M | 1.53
256 | F16Q | 2.4
257 | F16R | 2.89
258 | F16M | 1.89
259 | F16I | 1.71
260 | F16T | 2

Row | Variant | protein stability index
261 | F16C | 2.42
262 | F16Y | 1.99
263 | K13M | 1.62
264 | K13W | 2.62
265 | K13N | 1.78
266 | K13D | 2.91
267 | K13R | 2.31
268 | K13E | 2.42
269 | K13I | 2.06
270 | K13P | 2.86
271 | C9H | 3.03
272 | C9Y | 3.67
273 | C9P | 3.7
274 | C9I | 3.17
275 | C9W | 3.62
276 | C9R | 3.99
277 | C9Q | 3.64
278 | C9G | 3.94
279 | S20Y | 3.34
280 | S20L | 2.44
281 | S20C | 1.86
282 | S20Q | 1.88
283 | S20K | 2.26
284 | K14L | 1.66
285 | K14R | 1.53

Row | Variant | protein stability index
286 | K14S | 2.27
287 | K14M | 1.61
288 | K14Q | 1.75
289 | K14P | 1.97
290 | R5K | 1.99
291 | R5G | 2.24
292 | R5C | 3.5
293 | R5N | 1.64
294 | R5H | 2.67
295 | R5Q | 2.23
296 | R5W | 2
297 | P6M | 2.74
298 | P6L | 1.58
299 | P6D | 2.52
300 | P6Q | 3.29
301 | L22C | 3.46
302 | L22A | 3.16
303 | L22N | 2.08
304 | L22W | 2.66
305 | Y7T | 2.71
306 | Y7D | 2.6
307 | E8C | 2.38
308 | E8N | 1.79
309 | T2Y | 1.9
310 | T2G | 2.55

Row | Variant | protein stability index
311 | T2S | 1.83
312 | R18W | 2.33
313 | R18M | 1.5
314 | R18A | 2.13
315 | R18V | 1.59
316 | R18G | 2.12
317 | R18S | 2.5
318 | R18F | 2.18
319 | H21A | 2.22
320 | H21D | 2.27
321 | H21S | 2.93
322 | H21F | 1.83
323 | H21P | 3.26
324 | G3H | 3.28
325 | G3F | 2.06
326 | G3Q | 3.59
327 | G3Y | 1.9
328 | G3T | 2.12
329 | G3W | 2.43
330 | R15Q | 1.79
331 | R15D | 2.09
332 | R15V | 2.16
333 | R15N | 2.58
334 | R15S | 1.52
